# According to the supplement of paper PMC9112550, “Optimization of the antimicrobial peptide Bac7 by deep mutational scanning” (BMC Biology, 2022):
# System: Escherichia coli TOP10
# Test: shrunken log2 fold change of peptide-encoding DNA abundance (4.5 h post-induction vs induction); higher = less antimicrobial activity (less host growth inhibition)
# Conditions: time post-induction: 4.5 h; library: site-saturation at positions 5, 18, 19, 20
# 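Further: peptides expressed intracellularly from a pBAD plasmid library in pooled LB shake-flask culture, induced with 0.3% L-arabinose, DNA abundance read by NGS, three biological replicates, DESeq2 with apeglm shrinkage.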
row,Sequence,shrunken log2 fold change
1,RRIRPRPPRLPRPRPRPSNTPRP,-0.316
2,RRIRRRPPRLPRPRPRPICMPRP,0.296
3,RRIRPRPPRLPRPRPRPAKMPRP,0.0216
4,RRIRARPPRLPRPRPRPRGQPRP,0.666
5,RRIRTRPPRLPRPRPRPQQQPRP,-0.0474
6,RRIRQRPPRLPRPRPRPGQVPRP,0.111
7,RRIRDRPPRLPRPRPRPGWDPRP,-0.182
8,RRIRLRPPRLPRPRPRPIFAPRP,0.331
9,RRIRQRPPRLPRPRPRPWVHPRP,-0.0494
10,RRIRKRPPRLPRPRPRPIRAPRP,0.14
11,RRIRDRPPRLPRPRPRPSCDPRP,-0.0948
12,RRIRWRPPRLPRPRPRPEGWPRP,1.39
13,RRIRARPPRLPRPRPRPMMRPRP,1.22
14,RRIRERPPRLPRPRPRPTSEPRP,0.0668
15,RRIRGRPPRLPRPRPRPWWAPRP,0.193
16,RRIRNRPPRLPRPRPRPLKVPRP,4.47
17,RRIRIRPPRLPRPRPRPLLMPRP,-0.489
18,RRIRVRPPRLPRPRPRPEVTPRP,-0.0717
19,RRIRTRPPRLPRPRPRPACHPRP,0.049
20,RRIRNRPPRLPRPRPRPADCPRP,0.131
21,RRIRDRPPRLPRPRPRPVFPPRP,0.108
22,RRIRGRPPRLPRPRPRPSSFPRP,0.406
23,RRIRDRPPRLPRPRPRPRFFPRP,0.226
24,RRIRMRPPRLPRPRPRPLMIPRP,-0.159
25,RRIRCRPPRLPRPRPRPMERPRP,-0.00088

row,Sequence,shrunken log2 fold change
1,RRIRMRPPRLPRPRPRPYCVPRP,0.117
2,RRIRCRPPRLPRPRPRPYDIPRP,0.0852
3,RRIRERPPRLPRPRPRPCLFPRP,-0.222
4,RRIRWRPPRLPRPRPRPHTSPRP,-0.672
5,RRIRGRPPRLPRPRPRPQWQPRP,-0.134
6,RRIRFRPPRLPRPRPRPKHHPRP,-0.282
7,RRIRFRPPRLPRPRPRPVYEPRP,-0.66
8,RRIRVRPPRLPRPRPRPYGHPRP,-0.0167
9,RRIRPRPPRLPRPRPRPQILPRP,-0.172
10,RRIRMRPPRLPRPRPRPARYPRP,0.581
11,RRIRLRPPRLPRPRPRPDDYPRP,-0.247
12,RRIRGRPPRLPRPRPRPGQRPRP,0.345
13,RRIRSRPPRLPRPRPRPSLQPRP,-0.606
14,RRIRYRPPRLPRPRPRPGYDPRP,-0.205
15,RRIRNRPPRLPRPRPRPELFPRP,-0.0281
16,RRIRFRPPRLPRPRPRPTLNPRP,-0.254
17,RRIRMRPPRLPRPRPRPVVCPRP,0.125
18,RRIRGRPPRLPRPRPRPCEQPRP,0.48
19,RRIRLRPPRLPRPRPRPENPPRP,-0.173
20,RRIRCRPPRLPRPRPRPHRDPRP,-0.3
21,RRIRKRPPRLPRPRPRPHFRPRP,-0.138
22,RRIRVRPPRLPRPRPRPGNYPRP,-0.162
23,RRIRFRPPRLPRPRPRPRHVPRP,-0.0276
24,RRIRNRPPRLPRPRPRPDAVPRP,0.0764
25,RRIRERPPRLPRPRPRPQRQPRP,0.0791

row,Sequence,shrunken log2 fold change
1,RRIRWRPPRLPRPRPRPSSGPRP,-0.00985
2,RRIRYRPPRLPRPRPRPLHHPRP,-1.14
3,RRIRHRPPRLPRPRPRPWCFPRP,-0.688
4,RRIRVRPPRLPRPRPRPNCMPRP,-0.222
5,RRIRGRPPRLPRPRPRPSTCPRP,0.18
6,RRIRLRPPRLPRPRPRPTMEPRP,0.274
7,RRIRARPPRLPRPRPRPQWGPRP,0.315
8,RRIRERPPRLPRPRPRPPELPRP,0.102
9,RRIRSRPPRLPRPRPRPLRQPRP,0.364
10,RRIRFRPPRLPRPRPRPYSQPRP,-0.411
11,RRIRWRPPRLPRPRPRPVKDPRP,-0.0234
12,RRIRIRPPRLPRPRPRPTWIPRP,-0.415
13,RRIRQRPPRLPRPRPRPGHIPRP,-0.0594
14,RRIRARPPRLPRPRPRPWLEPRP,-0.0344
15,RRIRKRPPRLPRPRPRPQGGPRP,0.0321
16,RRIRQRPPRLPRPRPRPDSDPRP,-0.159
17,RRIRIRPPRLPRPRPRPYNIPRP,-0.257
18,RRIRCRPPRLPRPRPRPKDAPRP,0.183
19,RRIRNRPPRLPRPRPRPMGTPRP,-0.0967
20,RRIRERPPRLPRPRPRPFCIPRP,-0.346
21,RRIRGRPPRLPRPRPRPFKFPRP,-0.11
22,RRIRLRPPRLPRPRPRPKVCPRP,0.0264
23,RRIRFRPPRLPRPRPRPGQKPRP,-0.0331
24,RRIRPRPPRLPRPRPRPITFPRP,-0.112
25,RRIRLRPPRLPRPRPRPPEMPRP,1.71

row,Sequence,shrunken log2 fold change
1,RRIRWRPPRLPRPRPRPHGMPRP,0.0365
2,RRIRKRPPRLPRPRPRPIDLPRP,-0.0822
3,RRIRFRPPRLPRPRPRPHSEPRP,-0.276
4,RRIRFRPPRLPRPRPRPIAIPRP,-0.149
5,RRIRFRPPRLPRPRPRPKAQPRP,-0.0881
6,RRIRHRPPRLPRPRPRPAFIPRP,-0.037
7,RRIRLRPPRLPRPRPRPVNEPRP,-0.0825
8,RRIRCRPPRLPRPRPRPVLGPRP,0.0642
9,RRIRSRPPRLPRPRPRPRRFPRP,-0.0186
10,RRIRMRPPRLPRPRPRPSMYPRP,0.081
11,RRIRCRPPRLPRPRPRPIWYPRP,-0.564
12,RRIRNRPPRLPRPRPRPAGEPRP,0.507
13,RRIRRRPPRLPRPRPRPNRSPRP,0.339
14,RRIRYRPPRLPRPRPRPRSVPRP,-0.0717
15,RRIRMRPPRLPRPRPRPRPGPRP,1.38
16,RRIRNRPPRLPRPRPRPVLHPRP,-0.00264
17,RRIRFRPPRLPRPRPRPQACPRP,-0.0456
18,RRIRERPPRLPRPRPRPGVCPRP,0.155
19,RRIRERPPRLPRPRPRPFQLPRP,0.053
20,RRIRVRPPRLPRPRPRPNQTPRP,-0.0286
21,RRIRQRPPRLPRPRPRPVHTPRP,-0.168
22,RRIRKRPPRLPRPRPRPIIWPRP,0.0809
23,RRIRYRPPRLPRPRPRPSIVPRP,-0.912
24,RRIRKRPPRLPRPRPRPSPAPRP,0.478
25,RRIRCRPPRLPRPRPRPSPCPRP,-0.0417

row,Sequence,shrunken log2 fold change
1,RRIRFRPPRLPRPRPRPLSKPRP,0.72
2,RRIRTRPPRLPRPRPRPWNQPRP,-0.543
3,RRIRIRPPRLPRPRPRPKMCPRP,0.168
4,RRIRNRPPRLPRPRPRPFSKPRP,-0.303
5,RRIRKRPPRLPRPRPRPIYNPRP,-0.0567
6,RRIRCRPPRLPRPRPRPMGSPRP,0.0655
7,RRIRYRPPRLPRPRPRPIQKPRP,-0.00992
8,RRIRERPPRLPRPRPRPESAPRP,0.056
9,RRIRNRPPRLPRPRPRPVDEPRP,0.0158
10,RRIRCRPPRLPRPRPRPNELPRP,-0.171
11,RRIRDRPPRLPRPRPRPWGWPRP,0.226
12,RRIRQRPPRLPRPRPRPFFGPRP,6.44e-05
13,RRIRFRPPRLPRPRPRPCHYPRP,-0.211
14,RRIRARPPRLPRPRPRPQSQPRP,-0.0155
15,RRIRARPPRLPRPRPRPCFGPRP,0.0532
16,RRIRQRPPRLPRPRPRPQWAPRP,0.142
17,RRIRHRPPRLPRPRPRPRRWPRP,-0.00291
18,RRIRTRPPRLPRPRPRPYVPPRP,-0.1
19,RRIRKRPPRLPRPRPRPQNSPRP,-0.0372
20,RRIRWRPPRLPRPRPRPDAFPRP,0.0334
21,RRIRARPPRLPRPRPRPIHCPRP,-0.189
22,RRIRSRPPRLPRPRPRPNNPPRP,-0.3
23,RRIRDRPPRLPRPRPRPLGVPRP,0.577
24,RRIRVRPPRLPRPRPRPLQCPRP,-0.371
25,RRIRARPPRLPRPRPRPTHGPRP,0.644

row,Sequence,shrunken log2 fold change
1,RRIRARPPRLPRPRPRPWDYPRP,0.00145
2,RRIRPRPPRLPRPRPRPTKHPRP,-0.131
3,RRIRTRPPRLPRPRPRPQAFPRP,0.0884
4,RRIRVRPPRLPRPRPRPEVIPRP,-0.595
5,RRIRSRPPRLPRPRPRPQLIPRP,-0.0943
6,RRIRPRPPRLPRPRPRPQCFPRP,0.185
7,RRIRMRPPRLPRPRPRPQKLPRP,0.0146
8,RRIRDRPPRLPRPRPRPNVLPRP,-0.45
9,RRIRARPPRLPRPRPRPWSTPRP,0.0839
10,RRIRCRPPRLPRPRPRPGPVPRP,0.239
11,RRIRWRPPRLPRPRPRPECIPRP,0.872
12,RRIRARPPRLPRPRPRPLLMPRP,0.384
13,RRIRSRPPRLPRPRPRPGHTPRP,0.0898
14,RRIRKRPPRLPRPRPRPKCNPRP,-0.0341
15,RRIRYRPPRLPRPRPRPPPMPRP,0.46
16,RRIRQRPPRLPRPRPRPTEIPRP,-0.223
17,RRIRYRPPRLPRPRPRPDIFPRP,-0.032
18,RRIRARPPRLPRPRPRPICNPRP,0.176
19,RRIRARPPRLPRPRPRPLDQPRP,1.44
20,RRIRYRPPRLPRPRPRPMNTPRP,-1.25
21,RRIRERPPRLPRPRPRPVCHPRP,-0.309
22,RRIRVRPPRLPRPRPRPKGFPRP,-0.00211
23,RRIRNRPPRLPRPRPRPYQLPRP,0.327
24,RRIRERPPRLPRPRPRPRRNPRP,-0.0448
25,RRIRVRPPRLPRPRPRPRTRPRP,0.339
